From PMC4652760

Legend:
[1] = target: Streptomyces coelicolor RNase J (SCO5745) (Streptomyces coelicolor); experiment: crystal structure; crystals from 27.5% w/v PEG 400, 0.1 M Tris-HCl pH 8.5, 18°C; co-purified RNA bound; space group P4(3)22, two protomers in the asymmetric unit; tetramer by crystallographic 2-fold symmetry
[2] = target: Streptomyces coelicolor RNase J (SCO5745) (Streptomyces coelicolor); experiment: AUC; analytical ultracentrifugation, data not shown; conditions not given

**Q.** For “Streptomyces coelicolor RNase J (SCO5745) (enzyme)”, which stoichiometry N [1] is on record?
**A.** 4

**Q.** What about the stoichiometry N [2] of the same substance?
**A.** 4
